Measurements: IntAct's records for PubMed 18615013

B1: Aurora kinase A (Homo sapiens), O14965 (parent)
chain: MDRSKENCISGPVKATAPVGGPKRVLVTQQFPCQNPLPVNSGQAQRVLCPSNSSQRIPLQAQKLVSSHKPVQNQKQKQLQATSVPHPVSRPLNNTQKSKQPLPSAPENNPEEELASKQKNEESKKRQWALEDFEIGRPLGKGKFGNVYLAREKQSKFILALKVLFKAQLEKAGVEHQLRREVEIQSHLRHPNILRLYGYFHDATRVYLILEYAPLGTVYRELQKLSKFDEQRTATYITELANALSYCHSKRVIHRDIKPENLLLGSAGELKIADFGWSVHAPSSRRTTLCGTLDYLPPEMIEGRMHDEKVDLWSLGVLCYEFLVGKPPFEANTYQETYKRISRVEFTFPDFVTEGARDLISRLLKHNPSQRPMLREVLEHPWITANSSKPSNCQNKESASKQS

Variants of: B1
Conditions: with plk1_human PLK1, P53350
Chain of plk1_human PLK1, P53350 (P53350 whole entry): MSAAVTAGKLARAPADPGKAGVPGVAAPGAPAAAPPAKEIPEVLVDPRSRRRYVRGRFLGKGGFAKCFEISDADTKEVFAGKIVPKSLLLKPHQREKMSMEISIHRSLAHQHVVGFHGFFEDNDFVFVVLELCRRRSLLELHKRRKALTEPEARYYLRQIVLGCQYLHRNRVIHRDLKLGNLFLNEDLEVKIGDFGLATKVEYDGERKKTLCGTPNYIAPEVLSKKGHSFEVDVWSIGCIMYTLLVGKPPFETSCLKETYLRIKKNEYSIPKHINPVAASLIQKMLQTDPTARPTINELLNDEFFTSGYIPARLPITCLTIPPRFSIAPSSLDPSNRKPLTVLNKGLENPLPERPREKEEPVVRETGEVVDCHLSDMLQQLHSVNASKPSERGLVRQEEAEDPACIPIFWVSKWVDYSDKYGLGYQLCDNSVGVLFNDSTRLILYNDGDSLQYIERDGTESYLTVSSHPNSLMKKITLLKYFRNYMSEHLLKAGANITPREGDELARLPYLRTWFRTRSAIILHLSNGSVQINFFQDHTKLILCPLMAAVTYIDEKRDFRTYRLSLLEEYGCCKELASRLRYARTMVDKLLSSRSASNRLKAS

Variant | effect of a mutation on the interaction
MDRSKENCISGPVKATAPVGGPKRVLVTQQFPCQNPLPVNSGQAQRVLCPSNSSQRIPLQAQKLVSSHKPVQNQKQKQLQATSVPHPVSRPLNNTQKSKQPLPSAPENNPEEELASKQKNEESKKRQWALEDFEIGRPLGKGKFGNVYLAREKQSKFILALRVLFKAQLEKAGVEHQLRREVEIQSHLRHPNILRLYGYFHDATRVYLILEYAPLGTVYRELQKLSKFDEQRTATYITELANALSYCHSKRVIHRDIKPENLLLGSAGELKIADFGWSVHAPSSRRTTLCGTLDYLPPEMIEGRMHDEKVDLWSLGVLCYEFLVGKPPFEANTYQETYKRISRVEFTFPDFVTEGARDLISRLLKHNPSQRPMLREVLEHPWITANSSKPSNCQNKESASKQS [K162R] | disrupting interaction
